Data published in paper PMC4619679.

Molecular target: Dnmt1 (N-His) (UniProt P13864)
Assay: MST
Settings: EMSA: 20 mM Tris pH 7.6, 30 mM KCl, 5 mM EDTA, 1 mM DTT, 5 uM SAM, 20% glycerol, 26 C, MST: 10 mM Tris/Cl, 150 mM KCl, 0.75 mM MgCl2, 0.25 mM EGTA

Chain of UniProt P13864 (P13864 whole entry): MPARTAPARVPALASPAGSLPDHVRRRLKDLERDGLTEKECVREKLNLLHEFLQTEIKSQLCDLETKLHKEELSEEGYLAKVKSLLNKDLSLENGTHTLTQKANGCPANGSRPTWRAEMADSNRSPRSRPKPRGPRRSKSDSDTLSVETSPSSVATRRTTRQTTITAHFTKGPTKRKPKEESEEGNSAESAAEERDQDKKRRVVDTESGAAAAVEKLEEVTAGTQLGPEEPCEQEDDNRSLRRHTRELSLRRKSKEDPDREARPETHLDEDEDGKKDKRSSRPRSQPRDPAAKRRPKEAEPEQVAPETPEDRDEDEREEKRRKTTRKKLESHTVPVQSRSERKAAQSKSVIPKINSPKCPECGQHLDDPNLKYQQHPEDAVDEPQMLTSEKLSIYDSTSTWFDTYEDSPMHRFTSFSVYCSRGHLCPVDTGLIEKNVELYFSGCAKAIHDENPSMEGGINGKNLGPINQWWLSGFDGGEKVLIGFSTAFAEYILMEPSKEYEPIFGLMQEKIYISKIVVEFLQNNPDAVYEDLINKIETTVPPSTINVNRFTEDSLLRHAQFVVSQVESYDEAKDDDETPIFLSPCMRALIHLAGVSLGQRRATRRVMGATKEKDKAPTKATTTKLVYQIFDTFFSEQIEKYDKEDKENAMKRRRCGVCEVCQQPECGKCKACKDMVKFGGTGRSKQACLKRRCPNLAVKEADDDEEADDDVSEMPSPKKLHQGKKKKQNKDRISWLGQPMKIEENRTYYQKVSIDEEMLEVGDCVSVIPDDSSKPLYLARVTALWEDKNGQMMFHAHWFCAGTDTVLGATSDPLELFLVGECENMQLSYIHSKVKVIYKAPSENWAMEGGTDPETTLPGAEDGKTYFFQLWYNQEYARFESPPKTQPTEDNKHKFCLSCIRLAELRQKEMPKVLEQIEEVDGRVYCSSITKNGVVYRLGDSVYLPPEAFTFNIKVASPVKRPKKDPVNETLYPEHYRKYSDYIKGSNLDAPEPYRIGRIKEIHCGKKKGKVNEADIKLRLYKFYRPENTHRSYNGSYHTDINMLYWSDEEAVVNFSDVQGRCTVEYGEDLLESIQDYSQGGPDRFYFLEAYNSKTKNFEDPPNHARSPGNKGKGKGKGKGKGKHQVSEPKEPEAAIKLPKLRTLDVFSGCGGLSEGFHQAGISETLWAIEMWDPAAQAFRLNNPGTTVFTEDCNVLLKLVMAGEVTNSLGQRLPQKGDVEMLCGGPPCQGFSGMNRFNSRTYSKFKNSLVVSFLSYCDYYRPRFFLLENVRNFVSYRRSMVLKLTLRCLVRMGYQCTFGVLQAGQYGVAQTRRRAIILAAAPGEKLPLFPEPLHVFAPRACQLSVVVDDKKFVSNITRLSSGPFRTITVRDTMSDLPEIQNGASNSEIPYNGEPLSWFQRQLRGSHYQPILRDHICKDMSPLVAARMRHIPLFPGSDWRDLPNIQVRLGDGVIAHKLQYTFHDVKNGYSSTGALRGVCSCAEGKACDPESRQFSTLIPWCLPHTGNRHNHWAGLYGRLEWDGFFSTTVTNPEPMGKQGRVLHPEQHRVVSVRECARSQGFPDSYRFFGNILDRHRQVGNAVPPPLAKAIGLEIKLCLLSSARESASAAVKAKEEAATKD

Sequence	binding signal (fold higher affinity with SAM) (160 uM SAM, 5-methyl-C at Z positions of the lower strand (C5, C12, C18, C20, C29, C33, C40, C42, C49; strand printed only up to TTAGAZG, so the CG in the last 8 nt is unknown))	K half [nM]
TGCGGAATCGTCTAACGCGTGGAATCGTCCGATTGAGGTCGCGATCTCGAATCACGGTGC (double strand) [AIR60 hemi-methylated 60 bp DNA]	2	–
TGCGGAATCGTCTAACGCGTGGAATCGTCCGATTGAGGTCGCGATCTCGAATCACGGTGC (double strand) [AIR60 non-methylated 60 bp DNA]	–	1500
